Experiment [1] deals with T1, TSLP receptors constitutively expressed on NAG8/7 cells.
T1 construct: also called single class of receptors
Briefly: displacement binding of 125I-TSLP by unlabeled TSLP on NAG8/7 cells, Scatchard transformation. Here is the method:
The binding of TSLP to 293 cells transfected with murine IL-7Rα and murine TSLPR polypeptide, or murine IL-7Rα alone, was analyzed in a displacement binding assay. Following two washes, 1×10⁶transfected 293 cells were incubated in a constant amount of ¹²⁵I-labeled TSLP (approximately 20,000 cpm) and varying amounts of unlabeled TSLP. Following a 3 hour incubation, treated cells were separated from the medium by centrifugation in olive oil and N-butylphthalate. Cell-bound radioactivity was measured using a gamma counter.
Analysis of binding data by Scatchard transformation was performed using the LIGAND computer program (Munson and Rodbard, 1980, Anal. Biochem. 107:220-39). […] Due to the very low binding activity of TSLP for cells expressing TSLPR polypeptide alone, it was not possible to determine the Kd for these cells. Displacement binding assays were also performed using NAG8/7 cells, which constitutively express TSLP receptors and proliferate in response to TSLP (Friend et al., supra; Levin et al., supra). In these displacement binding assays, 5×10⁶ NAG8/7 cells were incubated in a constant amount of ¹²⁵I-labeled TSLP (approximately 180,000 cpm) and varying amounts of unlabeled TSLP. The remainder of the assay was performed as described herein.

Another experiment has as its target T2, murine IL-7Rα (murine, UniProt P16872 21-459).
T2 construct: whole, on cells; Expressed alone on transfected 293 cells; also called murine IL-7Rα alone
T2 sequence (looked up): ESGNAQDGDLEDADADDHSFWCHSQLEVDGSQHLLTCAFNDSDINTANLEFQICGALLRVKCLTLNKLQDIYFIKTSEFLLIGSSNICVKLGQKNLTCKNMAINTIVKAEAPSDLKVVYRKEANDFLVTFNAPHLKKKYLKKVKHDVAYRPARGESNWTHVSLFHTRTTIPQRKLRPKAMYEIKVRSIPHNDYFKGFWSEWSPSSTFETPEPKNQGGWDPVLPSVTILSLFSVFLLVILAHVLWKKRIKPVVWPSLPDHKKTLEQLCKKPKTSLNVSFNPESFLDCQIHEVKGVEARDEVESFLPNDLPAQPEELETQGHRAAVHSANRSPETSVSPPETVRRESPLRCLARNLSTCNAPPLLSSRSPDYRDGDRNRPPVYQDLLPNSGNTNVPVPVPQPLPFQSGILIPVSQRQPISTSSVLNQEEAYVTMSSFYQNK
As to the kind of experiment: affinity labeling of transfected 293 cells with 125I-TSLP, DSS cross-linking, SDS-PAGE. As to the method:
The binding of TSLP to TSLPR polypeptide in the presence of IL-7Rα was examined in affinity labeling assays. Affinity labeling assays were performed by adding 1-5 nM of ¹²⁵I-labeled TSLP to 5×10⁶ 293 cells transfected with expression constructs for murine IL-7Rα, murine TSLPR polypeptide, murine IL-7Rα and murine TSLPR polypeptide, or human IL-7Rα and murine TSLPR polypeptide. Iodinated TSLP was prepared by adding IODO-GEN (Pierce, Rockford, Ill.) and 2 mCi ¹²⁵I to 1 μg of TSLP. A specific activity of approximately 200-300 μCi/μg was obtained by this method. Prior to affinity labeling, 293 cells were transiently transfected using the calcium phosphate method (Eppendorf-5 Prime, Boulder, Colo.). Following a 2 hour incubation with ¹²⁵I-TSLP, cells were cross-linked with 0.1 mg/ml disuccinimidyl suberate (Pierce), lysed in lysis buffer, and the lysates resolved by SDS-PAGE.

T1 sequence (Q8CII9 20-359): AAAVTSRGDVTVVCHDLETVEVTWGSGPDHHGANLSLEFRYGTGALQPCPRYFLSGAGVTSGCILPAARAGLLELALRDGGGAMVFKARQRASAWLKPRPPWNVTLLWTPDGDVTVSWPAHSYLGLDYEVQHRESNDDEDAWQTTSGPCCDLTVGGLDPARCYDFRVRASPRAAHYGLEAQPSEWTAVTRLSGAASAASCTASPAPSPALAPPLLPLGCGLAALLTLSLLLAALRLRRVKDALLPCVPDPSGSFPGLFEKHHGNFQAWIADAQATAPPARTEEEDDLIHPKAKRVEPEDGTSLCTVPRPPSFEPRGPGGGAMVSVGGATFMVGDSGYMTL

B1: Thymic stromal lymphopoietin (TSLP) (ligand, UniProt Q9JIE6 20-140, looked up)
chain: YNFSNCNFTSITKIYCNIIFHDLTGDLKGAKFEQIEDCESKPACLLKIEYYTLNPIPGCPSLPDKTFARRTREALNDHCPGYPETERNDGTQEMAQEVQNICLNQTSQILRLWYSFMQSPE
As usually defined, the Kd is the concentration at which binding is half-saturated. The low end stands for a tighter complex, the high end for a looser complex. B1 returned a Kd in experiment [1] of approximately 2.2 nM. Moreover, in the experiment with murine IL-7Rα, the binding result is on record as “no binding (tested: 1-5 nM of 125I-labeled TSLP)”.

For the origin of these results see patent US20020160949A1 (WHITEHEAD INSTITUTE FOR BIOMEDICAL RESEARCH, published 2002).
